PMC2646141

Target: untagged wild type APOBEC3G (A3G) (human), Q9HC16
Assay: cross-linking; cleared lysate of transfected 293T cells treated with BM(PEO)3 (cysteine-reactive, 18 Å linker), 20°C, 1 h, quenched with DTT; SDS-PAGE and immunoblot for A3G; ~80 kD species; no RNase A, or RNase A after the crosslinking
Details: remark: other sources report otherwise

B1: untagged wild type APOBEC3G (A3G), Q9HC16 1-384 (natural protein)
chain: MKPHFRNTVERMYRDTFSYNFYNRPILSRRNTVWLCYEVKTKGPSRPPLDAKIFRGQVYSELKYHPEMRFFHWFSKWRKLHRDQEYEVTWYISWSPCTKCTRDMATFLAEDPKVTLTIFVARLYYFWDPDYQEALRSLCQKRDGPRATMKIMNYDEFQHCWSKFVYSQRELFEPWNNLPKYYILLHIMLGEILRHSMDPPTFTFNFNNEPWVRGRHETYLCYEVERMHNDTWVLLNQRRGFLCNQAPHKHGFLEGRHAELCFLDVIPFWKLDLDQDYRVTCFTSWSPCFSCAQEMAKFISKNKHVSLCIFTARIYDDQGRCQEGLRTLAEAGAKISIMTYSEFKHCWDTFVDHQGCPFQPWDGLDEHSQDLSGRLRAILQNQEN
For B1, the stoichiometry N was 2.
